Reference: patent US20200102389A1 (Hoffmann-La Roche, published 2020)

B1: HLA-G-0032 (antibody, V domains shown)
VH: QVQLQQSGAELVKPGSSVKISCKASGYSFPSYDMHWIKQQPGNGLEWIGWIYPGNGNTKYNQKFNGKASLTADKSSSTAYMQLSSLTSEDSAVYFCAKPTVATRYNWFAYWGQGTLVTVSS
VL: QIVLTQSPALMSASPGEKVTMTCSASSSVNYMHWYQQKPRSSPKPWIYLTSNLASGVPARFSGSGSGTSYSLTISTMEAEDAATYYCQQWSSNLPITFGSGTKLEIK
B2: HLA-G-0033 (antibody, V domains shown)
VH: EVQLVETGGGLVQSGRSLKLSCVASGFTFNDYWMTWTRQAPGKGLEWVASITNSGGRTYYLDSVRGRFTISRDDAQNTLYLQMNSLRSEDTATYYCTKERIYLTAYWFFDFWGPGTMVTVSS
VL: DTILTQSPALAVSPGERVTISCRASESVSTLIHWYQQKPGQRPKLLIYLASHLESGVPARFSGSGSGTDFTLTIDPVEADDTATYYCQQSWNEPRTFGGGTKLELK
B3: HLA-G-0037 (antibody, V domains shown)
VH: QVQLKESGPGLVQPSQTLSLTCSVSGFSLTTYSVSWVRQPPGKGLEWIGAIWSGGSTDYNSALKSRLRISRDTSKSQVLLKMNSLQTEDRAMYFCVRMNNKFGYWYFDLWGPGTMVTVSS
VL: DTVLTQSPTLAVSPGEKITISCRASETVSTMLHWYQQKPGQQPKLLISLASHLESGVPARFTGSGSGTDFTLTIDPVEADDTATYYCQQTWNDPLTFGSGTKLEIK

target: T1, recombinant soluble human HLA-G β2M MHC class I complex, dimer (human); assay: ELISA, HLA-G dimer coated on plate
T1 construct: also called HLA-G Dimer; fraction A9
Procedure: (§1) The above table summarizes the binding of different rat anti-human HLA-G monoclonal antibodies, derived from wt protein IMS. Shown are the relative EC50 values [ng/ml] of the respective binding to rec. wt monomeric, dimeric and trimeric HLA-G proteins as assessed by ELISA. The ELISA was set up by coating the biotinylated wt HLA-G antigen to strepdavidin plates. After incubation and washing steps, the respective antibodies were bound in a concentration range from 10-0 μg in 1:2 dilution steps. Detection of bound antibodies was carried out by anti-Fc-antibody-POD conjugates. EC50 values were determined from the resulting binding curves at the antibody concentrations generating the half-maximal signal. In case of the non-biotinylated HLA-G dimer and trimer antigens, immobilization was carried out by random coating on assay plates.

Row | EC50 [nM] | Binder
1 | 1.36 | B1
2 | 1.98 | B2
3 | 2.01 | B3

target: T2, recombinant soluble human HLA-G β2M MHC class I complex, trimer (human); assay: ELISA, HLA-G trimer coated on plate
T2 construct: also called HLA-G Trimer; fraction A8
Procedure: as §1

Row | EC50 [nM] | Binder
4 | 1.76 | B1
5 | 1.54 | B2
6 | 2.5 | B3

target: T3, recombinant soluble human HLA-G β2M MHC class I complex, monomer (human); assay: blocking ELISA, Fc tagged ILT4 coated, 100 nM antibody, soluble HLA-G monomer
T3 construct: His tagged; also called HLA-G-0003
Procedure: (§2) The ELISA was set up by coating the Fc tagged ILT2 and ILT4 respectively to Maxisorp microtiter plates. After incubation and washing steps, the respective antibodies were added at a concentration of 100nM. Soluble His tagged monomeric, dimeric or trimeric HLA-G was added to the wells. After incubation and washing steps, detection of bound receptor was carried out by anti-His-antibody-POD conjugates.

Row | % inh. ILT4 [%] | Binder
7 | 12 | B1
8 | 14 | B2
9 | 1 | B3

target: T2, recombinant soluble human HLA-G β2M MHC …; assay: competition ELISA, immobilised HLA-G trimer, antibody titrated, competitor c-myc ILT2
Procedure: (§3) The ELISA was set up by coating the biotinylated antigen wt HLA-G to strepdavidin plates. After incubation and washing steps, the respective antibodies were bound in a concentration range from 8-0 μg in 1:3 dilution steps. C-myc tagged ILT-2 or -4 receptor was added to the HLA-G-antibody complexes. After incubation and washing steps, detection of bound receptor was carried out by anti-cmyc-antibody-POD conjugates. IC50 values were determined from the resulting inhibition curves at the antibody concentrations generating the half-maximal inhibition. In case of the non-biotinylated HLA-G dimer and trimer antigens, immobilization was carried out by random coating on assay plates.

Row | IC50 [nM] | Binder
10 | 0.4 | B1
11 | 0.5 | B2
12 | 0.1 | B3

target: T3, recombinant soluble human HLA-G β2M MHC …; assay: ELISA, biotinylated wt HLA-G monomer on streptavidin plate
Procedure: Streptavidin coated plates (Nunc, MicroCoat #11974998001) were coated with 25 μl/well biotinylated human wt HLA-G at a concentration of 250 ng/ml and incubated at 4° C. overnight. After washing (3×90 μl/well with PBST-buffer) 25 μl anti-HLA-G samples (1:3 dilution in OSEP buffer) or reference antibody (G233, Thermo/Pierce #MA1-19449, 500 ng/ml) were added and incubated 1 h at RT. After washing (3×90 μl/well with PBST-buffer) 25 μl/well goat-anti-mouse H+L-POD (Biorad #170-6561, 1:2000 in OSEP) or donkey-anti-rabbit IgG POD (GE #NA9340V, 1:5000 in OSE) was added and incubated at RT for 1 h on shaker. For detection of rat IgGs a mixture of goat-anti-rat IgG1-POD (Bethyl #A110-106P), goat-anti-rat IgG2a-POD (Bethyl #A110-109P) and goat-anti-rat IgG2b-POD (Bethyl #A110-111P) 1:10000 in OSEP was added and incubated at RT for 1 h on shaker. After washing (6×90 μl/well with PBST-buffer) 25 μl/well TMB substrate (Roche, 11835033001) was added and incubated until OD 2-3. Measurement took place on a Tecan Safire 2 instrument at 370/492 nm.
as §1

Row | EC50 [nM] | Binder
13 | 3.59 | B1
14 | 4.94 | B2
15 | 4.95 | B3

target: T3, recombinant soluble human HLA-G β2M MHC …; assay: competition ELISA, immobilised HLA-G monomer, antibody titrated, competitor c-myc ILT2
Procedure: (§4) Streptavidin coated plates (Nunc, MicroCoat #11974998001) were coated with 25 μl/well biotinylated human wt HLA-G at a concentration of 500 ng/ml and incubated at 4° C. overnight. After washing (3×90 μl/well with PB ST-buffer) 25 μl anti-HLA-G samples were added in decreasing concentrations starting at 8 μg/ml, then diluted in 1:3 steps and incubated 1 h at RT. After washing (3×90 μl/well with PBST-buffer) 25 μl/well c-myc-tagged recombinant ILT-2 receptor was added at a concentration of 150 ng/ml and incubated for 1 h at room temperature. After washing (3×90 μl/well with PBST-buffer) 25 μl/well goat-anti-c-myc-POD (Bethyl #A190-104P 1:7000 in OSE) was added and incubated at RT for 1 h on a shaker. After washing (6×90 μl/well with PBST-buffer), 25 μl/well TMB substrate (Roche, 11835033001) was added and incubated until OD 2-3. Measurement took place on a Tecan Safire 2 instrument at 370/492 nm
as §3

Row | IC50 [nM] | Binder
16 | 8.4 | B1
17 | 8 | B2
18 | 13 | B3

target: T1, recombinant soluble human HLA-G β2M MHC …; assay: blocking ELISA, Fc tagged ILT4 coated, 100 nM antibody, soluble HLA-G dimer
Procedure: as §2

Row | % inh. ILT4 [%] | Binder
19 | 62 | B1
20 | 70 | B2
21 | 61 | B3

target: T2, recombinant soluble human HLA-G β2M MHC …; assay: blocking ELISA, Fc tagged ILT4 coated, 100 nM antibody, soluble HLA-G trimer
Procedure: as §2

Row | % inh. ILT4 [%] | Binder
22 | 68 | B1
23 | 71 | B2
24 | 67 | B3

target: T3, recombinant soluble human HLA-G β2M MHC …; assay: competition ELISA, immobilised biotinylated wt HLA-G, competitor c-myc ILT2
Procedure: as §4, §3

Row | % inh. ILT2 (3 µg/ml antibody) [%] | Binder
25 | 86.8 | B1
26 | 85.3 | B2
27 | 82.9 | B3

target: T2, recombinant soluble human HLA-G β2M MHC …; assay: competition ELISA, immobilised HLA-G trimer, antibody titrated, competitor c-myc ILT4
Procedure: as §3

Row | IC50 [nM] | Binder
28 | 71.3 | B1
29 | 61.5 | B2
30 | > 200 | B3

target: T3, recombinant soluble human HLA-G β2M MHC …; assay: competition ELISA, immobilised biotinylated wt HLA-G, competitor c-myc ILT4
Procedure: The above table summarizes the blocking of interaction between rec. HLA-G proteins (monomer and oligomers) to its receptors ILT2 and ILT4 as assessed by ELISA.
as §3

Row | % inh. ILT4 [%] | Binder
31 | 43 | B1
32 | 44.6 | B2
33 | 41 | B3
